Reference: publication PMC2671584

Columns and labels:
Assay in all cases: SPR; BIAcore 3000; ECM proteins immobilised on CM5 chips, endostatin injected at 0, 10, 50, 200 and 400 nM; 0.02 M Tris-HCl, 0.11 M NaCl, 0.05% P-20; 25 °C; flow 20 μl/min; global fit to the 1:1 Langmuir model; triplicates
[1] = target: mouse laminin-1-nidogen-1 complex (mouse) (UniProt P19137)
[2] = target: recombinant microfibrillar component fibulin-1 (UniProt Q08879)
[3] = target: mouse perlecan (mouse) (UniProt Q05793)
Sequence of UniProt Q05793 (Q05793 22-3707): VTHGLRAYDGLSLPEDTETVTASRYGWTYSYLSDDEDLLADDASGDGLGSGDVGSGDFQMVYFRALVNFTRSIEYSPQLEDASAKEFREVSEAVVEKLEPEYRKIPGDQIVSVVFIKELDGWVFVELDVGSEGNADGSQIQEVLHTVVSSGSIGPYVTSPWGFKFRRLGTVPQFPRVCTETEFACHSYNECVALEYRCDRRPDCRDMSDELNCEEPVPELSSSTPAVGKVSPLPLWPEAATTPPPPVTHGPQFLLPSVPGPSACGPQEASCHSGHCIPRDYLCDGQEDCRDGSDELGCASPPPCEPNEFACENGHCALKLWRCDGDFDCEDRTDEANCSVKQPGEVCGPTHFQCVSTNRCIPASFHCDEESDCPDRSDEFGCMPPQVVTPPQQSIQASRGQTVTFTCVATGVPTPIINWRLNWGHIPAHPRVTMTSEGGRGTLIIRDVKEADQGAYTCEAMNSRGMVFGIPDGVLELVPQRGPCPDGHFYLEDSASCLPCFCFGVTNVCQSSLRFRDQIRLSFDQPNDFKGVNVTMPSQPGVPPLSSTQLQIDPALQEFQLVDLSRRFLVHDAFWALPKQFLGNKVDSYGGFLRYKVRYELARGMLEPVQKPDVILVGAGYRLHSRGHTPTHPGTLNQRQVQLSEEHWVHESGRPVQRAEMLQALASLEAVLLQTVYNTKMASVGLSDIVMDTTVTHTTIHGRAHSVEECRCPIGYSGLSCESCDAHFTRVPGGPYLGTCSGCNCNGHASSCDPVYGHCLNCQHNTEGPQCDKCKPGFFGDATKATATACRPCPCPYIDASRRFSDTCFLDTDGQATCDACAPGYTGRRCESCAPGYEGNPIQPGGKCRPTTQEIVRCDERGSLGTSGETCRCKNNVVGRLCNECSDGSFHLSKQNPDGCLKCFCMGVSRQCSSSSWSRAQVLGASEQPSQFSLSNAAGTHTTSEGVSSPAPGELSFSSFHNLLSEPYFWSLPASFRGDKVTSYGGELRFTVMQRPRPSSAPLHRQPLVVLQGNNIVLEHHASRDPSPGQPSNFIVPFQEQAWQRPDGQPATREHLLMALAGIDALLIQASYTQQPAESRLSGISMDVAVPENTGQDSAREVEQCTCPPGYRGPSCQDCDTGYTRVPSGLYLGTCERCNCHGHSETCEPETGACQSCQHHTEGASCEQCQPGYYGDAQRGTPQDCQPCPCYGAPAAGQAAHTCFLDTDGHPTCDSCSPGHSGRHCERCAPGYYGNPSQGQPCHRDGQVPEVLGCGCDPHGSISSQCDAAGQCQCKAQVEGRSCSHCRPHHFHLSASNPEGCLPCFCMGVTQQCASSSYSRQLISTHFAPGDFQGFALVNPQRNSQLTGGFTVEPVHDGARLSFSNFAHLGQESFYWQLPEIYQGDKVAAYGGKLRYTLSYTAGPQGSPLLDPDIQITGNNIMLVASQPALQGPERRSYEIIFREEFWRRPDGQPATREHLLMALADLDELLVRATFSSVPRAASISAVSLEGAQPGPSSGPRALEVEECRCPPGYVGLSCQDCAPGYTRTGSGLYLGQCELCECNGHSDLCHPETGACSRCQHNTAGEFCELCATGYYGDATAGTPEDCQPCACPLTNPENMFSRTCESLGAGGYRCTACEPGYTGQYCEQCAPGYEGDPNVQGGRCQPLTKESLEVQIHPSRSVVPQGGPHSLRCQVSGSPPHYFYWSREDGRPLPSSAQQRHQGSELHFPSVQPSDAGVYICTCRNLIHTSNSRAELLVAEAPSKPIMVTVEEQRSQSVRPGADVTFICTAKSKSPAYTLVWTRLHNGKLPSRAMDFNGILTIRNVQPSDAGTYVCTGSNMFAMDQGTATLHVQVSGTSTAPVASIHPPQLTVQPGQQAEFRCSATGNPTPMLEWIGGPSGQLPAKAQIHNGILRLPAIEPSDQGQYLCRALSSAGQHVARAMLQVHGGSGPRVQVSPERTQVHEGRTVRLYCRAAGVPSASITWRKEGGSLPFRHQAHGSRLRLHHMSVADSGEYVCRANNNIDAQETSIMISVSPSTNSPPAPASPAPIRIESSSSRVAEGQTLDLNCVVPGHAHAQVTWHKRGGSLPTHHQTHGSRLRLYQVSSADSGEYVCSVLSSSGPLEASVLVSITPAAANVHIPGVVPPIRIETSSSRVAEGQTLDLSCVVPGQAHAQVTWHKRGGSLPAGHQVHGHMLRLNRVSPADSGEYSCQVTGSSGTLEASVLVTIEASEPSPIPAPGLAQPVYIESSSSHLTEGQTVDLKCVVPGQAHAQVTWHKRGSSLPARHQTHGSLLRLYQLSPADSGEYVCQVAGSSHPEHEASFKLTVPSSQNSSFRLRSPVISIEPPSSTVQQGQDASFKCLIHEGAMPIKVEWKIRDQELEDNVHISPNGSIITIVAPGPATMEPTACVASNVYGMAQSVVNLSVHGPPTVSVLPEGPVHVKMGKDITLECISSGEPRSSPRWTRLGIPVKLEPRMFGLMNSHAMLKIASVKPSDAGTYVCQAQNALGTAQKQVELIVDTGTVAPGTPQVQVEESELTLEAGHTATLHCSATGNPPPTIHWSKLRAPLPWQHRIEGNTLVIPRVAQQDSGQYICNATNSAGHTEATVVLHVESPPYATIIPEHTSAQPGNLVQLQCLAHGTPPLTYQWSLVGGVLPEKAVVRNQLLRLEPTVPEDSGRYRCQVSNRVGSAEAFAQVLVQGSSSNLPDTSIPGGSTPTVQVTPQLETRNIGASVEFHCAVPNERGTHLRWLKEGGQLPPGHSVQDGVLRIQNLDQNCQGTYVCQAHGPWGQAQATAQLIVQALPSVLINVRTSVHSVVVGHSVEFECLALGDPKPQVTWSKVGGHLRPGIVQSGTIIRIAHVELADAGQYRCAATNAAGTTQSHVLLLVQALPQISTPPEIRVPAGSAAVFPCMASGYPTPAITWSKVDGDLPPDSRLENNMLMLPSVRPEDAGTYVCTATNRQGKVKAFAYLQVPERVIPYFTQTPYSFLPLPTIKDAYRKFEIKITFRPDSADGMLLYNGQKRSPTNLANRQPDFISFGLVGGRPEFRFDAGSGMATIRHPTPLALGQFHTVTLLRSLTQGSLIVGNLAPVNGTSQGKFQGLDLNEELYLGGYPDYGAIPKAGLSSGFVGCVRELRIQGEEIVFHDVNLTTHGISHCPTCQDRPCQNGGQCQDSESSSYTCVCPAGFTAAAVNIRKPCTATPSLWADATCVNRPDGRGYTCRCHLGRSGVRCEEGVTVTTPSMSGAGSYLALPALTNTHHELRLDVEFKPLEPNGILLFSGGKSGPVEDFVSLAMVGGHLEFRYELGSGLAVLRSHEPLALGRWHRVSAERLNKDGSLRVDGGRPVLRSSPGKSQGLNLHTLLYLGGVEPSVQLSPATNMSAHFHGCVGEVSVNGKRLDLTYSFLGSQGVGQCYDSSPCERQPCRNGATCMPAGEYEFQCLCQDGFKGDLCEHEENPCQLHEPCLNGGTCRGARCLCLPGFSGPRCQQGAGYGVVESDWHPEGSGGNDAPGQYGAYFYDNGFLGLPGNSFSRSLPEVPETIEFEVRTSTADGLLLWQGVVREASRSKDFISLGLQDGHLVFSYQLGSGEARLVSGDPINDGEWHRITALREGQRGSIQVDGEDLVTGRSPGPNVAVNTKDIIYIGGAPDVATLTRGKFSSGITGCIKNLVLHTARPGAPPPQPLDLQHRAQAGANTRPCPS

Sequence of UniProt Q08879 (Q08879 30-705): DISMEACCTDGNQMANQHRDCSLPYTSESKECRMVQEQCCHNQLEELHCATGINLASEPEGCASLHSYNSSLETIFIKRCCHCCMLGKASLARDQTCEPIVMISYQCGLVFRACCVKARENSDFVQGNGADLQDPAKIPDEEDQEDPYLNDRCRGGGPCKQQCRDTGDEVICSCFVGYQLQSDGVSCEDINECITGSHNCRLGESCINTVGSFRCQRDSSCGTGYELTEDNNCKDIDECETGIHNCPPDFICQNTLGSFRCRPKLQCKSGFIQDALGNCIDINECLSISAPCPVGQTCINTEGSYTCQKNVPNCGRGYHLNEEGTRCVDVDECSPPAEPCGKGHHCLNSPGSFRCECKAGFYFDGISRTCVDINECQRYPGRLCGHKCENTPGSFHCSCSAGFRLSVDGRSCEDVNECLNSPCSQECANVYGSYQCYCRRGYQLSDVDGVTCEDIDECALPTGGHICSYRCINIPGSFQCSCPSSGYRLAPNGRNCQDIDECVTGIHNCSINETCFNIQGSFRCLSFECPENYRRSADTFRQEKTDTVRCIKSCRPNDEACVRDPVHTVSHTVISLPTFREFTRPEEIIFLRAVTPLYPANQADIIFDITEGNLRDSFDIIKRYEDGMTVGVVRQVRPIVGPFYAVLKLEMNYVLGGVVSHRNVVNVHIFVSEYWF

| Kd [1] | Kd [2] | Kd [3] | Substance |
| --- | --- | --- | --- |
| 6.17 nM | 6.95 nM | 5.19 nM | p.A1381T endostatin (mutated endostatin domain, c.3601G>A) (domain or fragment) |
| 3.48 nM | 3.1 nM | 5.53 nM | wild type human endostatin (endostatin domain of type XVIII collagen) (domain or fragment) |
